Reference: US12428456B2, “Peptide directed protein knockdown” (University of British Columbia, priority 2012, dated 2025)
“Also recorded” adds a separate entry of the source. No end group written: not given here.

Key:
PSD95 = target: T1, PSD95 (Rattus norvegicus, UniProt P31016); assay: Degradation of endogenous PSD95 in cultured neurons (immunoblot); assay type: cell-based; details: for effect on endogenous PSD95 level: 25 μM bath applied
T1 construct: endogenous in cells; host or cells: primary rat neurons
Experimental: (§1) Primary culture of cortical neurons. Dissociated cultures of rat cortical neurons were prepared from Sprague Dawley rat embryos collected from euthanized mothers 18 days after fertilization as previously described^35. Briefly, hippocampi and cerebral cortices were extracted from embryos and incubated for 30 min in 0.25% trypsin-EDTA. Digested tissues were dissociated by trituration and plated on poly-D-lysine-coated (Sigma, P7280) plates. Plating medium consisted of Neurobasal Media (Invitrogen, 21103-049) supplemented with B27 (Invitrogen, 17504044), glutamic acid (Sigma, G8415) and GlutaMax (Invitrogen, 35050-061). After 2 days, 2/3 of the media was replaced with fresh Neurobasal feeding media consisting of Neurobasal Media, B27 and GlutaMax. Cultures were maintained at 37° C. in a humidified 5% CO2 atmosphere. Mature neurons (14-18 days in vitro (DIV)) were used for experiments.
(§2) Immunoblotting. Immunoblotting assays were carried out as previously described^36. Briefly, proteins were extracted from neurons using a lysis buffer composed of 150 mM NaCl, 50 mM Tris, pH 7.4, 0.1% SDS, 1% NP-40, 0.5% sodium deoxycholate, 1 mM EDTA, 1 mM Na3VO4, and proteinase inhibitor mixture (Thermo Fisher, PI78442). Samples were separated on 10% SDS-PAGE gels, transferred to polyvinylidene difluoride (PVDF) membrane, and immunoblotted with respective antibodies. Blots were enhanced with chemiluminescence detection reagent kit (Fisher, 32106) and visualized with Bio-Rad imager and Quantity One software. Signal intensities from each band was quantified with Bio-Rad Image Lab software, and the bands were analyzed relative to their controls from the same membrane and experiment.

α-synuclein [1] = target: T2, α-synuclein (Rattus norvegicus, UniProt P37377); assay: Degradation of endogenous α-synuclein in cultured neurons (immunoblot); assay type: cell-based; details: for effect on endogenous α-synuclein level: 25 μM bath applied, 4 hours
T2 construct: endogenous in cells; host or cells: primary rat neurons
Experimental: as §1, §2

DAPK1 [2] = target: T3, DAPK1 (Rattus norvegicus, UniProt F1LNN8); assay: Knockdown of native DAPK1 in cultured cortical neurons, NMDA stimulation (immunoblot); assay type: cell-based; details: for reduction of activated DAPK1 on application alone: NR2B-CTS or Pep-1 alone; for levels of endogenous DAPK1 reduced by: with Pep-1 (1:4); for levels of endogenous DAPK1 reduced by / effect on DAPK1 in cytosolic fraction / effect on DAPK1 in mitochondrial fraction / effect on DAPK1 in nuclear fraction: 2 hours after washout; for effect on DAPK1 in cytosolic fraction / effect on DAPK1 in mitochondrial fraction / effect on DAPK1 in nuclear fraction: 1 hr prior to and during NMDA
T3 construct: decreased the level of endogenous DAPK1 in cultured cortical neurons following NMDA treatment; endogenous in cells; host or cells: primary rat cortical neurons (E18, 14-18 DIV)
Experimental: (§3) Cell culture, transfection and treatments. HEK293 cells and COS7 cells were cultured in DMEM (Sigma, D6429-24X500ML) supplemented with 10% Fetal Bovine Serum (Invitrogen, 12483020). Cells were grown to 80% confluence in 6-well plates before transiently transfected with Lipofectamine 2000 (Invitrogen, 11668019), as according to the manufacturer's protocols. Cells were transfected for either 24 or 48 hours at 37° C. before harvesting for biochemical analyses. For experiments involving TAT or His-TAT peptides, unless otherwise specified, peptides were added 1 hour prior to NMDA insult.
as §1, §2
Cellular fractionation. Cytoplasm/nuclei fractionation was performed on cultured cortical neurons (6.0*10^6 cells/100 mm dish). Briefly, cells were washed with ice cold PBS and rocked in lysis buffer for 30 min. Cells were then collected and centrifuged to obtain a rough cytoplasmic and nuclear fraction. Supernatant was collected and further centrifuged to obtain purified cytosolic fraction. The original pellet was washed and vortexed to obtain a nuclear lysis. Mitochondrial fractionation was performed as described in the Pierce Mitochondria Isolation Kit for Cultured Cells (Thermo Scientific, 89874) user guide. Purity was assessed by immunoblotting for the presence of LB1 (nucleus only), HSP90 (cytosol only) and VDAC1 (mitochondria only).

α-synuclein [3] = target: T4, α-synuclein (Homo sapiens, UniProt P37840); assay: Knockdown of co-expressed α-synuclein in HEK cells (immunoblot); assay type: cell-based; details: for effect on α-synuclein levels: co-expression at various ratios, 48 hours
T4 construct: expressed in transfected cells; host or cells: HEK293
Experimental: Plasmid construction. CTS-GFP was constructed by introducing a BamHI fragment containing the CTS coding sequence into the pEGFP-N2 vector (Clontech #6081-1). The CTS coding sequence was prepared by annealing custom design oligonucleotides (Integrated DNA Technologies). mCTS-GFP was constructed by performing single point mutations to CTS-GFP plasmid. FLAG-βsyn36 was constructed by annealing oligonucleotides and inserting into pcDNA3.0 using HindIII and NotI restriction sites (HindIII, Fermentas, FD0504; NotI Fermentas, FD0594). FLAG-βsyn36-CTS was constructed by PCR using FLAG-βsyn36 as template and adding CTS coding sequence to the reverse primer. FLAG-cDAPK1 was constructed by deleting the autoinhibitory domain from WT-DAPK1 (789-936 bp). NR2Bct (1242-1342aa) was prepared by PCR using NR2B expression vector. NR2Bct-CTS fragment was obtained by inserting NR2Bct fragment into CTS-GFP using EcoRI and BglII restriction sites (EcoRI, Fermentas, FD0274; BglII, Fermentas, FD0084), then PCR, introducing NcoI and EcoRI to the fragment (NcoI, Fermentas, FD0574). His-TAT-NR2Bct-CTS was constructed by cloning NR2Bct-CTS into the pTAT/pTAT-HA plasmids (generous gift of S. Dowdy, Washington University, St. Louis, MO^31) using NcoI and EcoRI restriction sites. His-TAT-NR2Bct was constructed by mutating the first amino acid in CTS sequence into a stop codon. HA-NR2Bct-CTS was constructed by PCR using His-TAT-NR2Bct-CTS as template, with BamHI site in both forward and reverse primers, and then inserted into pcDNA3.0 with BamHI (Fermentas, FERFD0054). HA-NR2Bct-CTSm was constructed by point mutations.
as §3, §2

DAPK1 [4] = target: T3, DAPK1; assay: DAPK1 knockdown in brain, rat MCAO focal ischemia model (immunoblot, immunohistochemistry); assay type: in vivo; details: 10 mg/kg i.v.
Experimental: as §2
Middle cerebral arterial occlusion (MCAO). All animal experiments were performed according to protocols approved by the University of British Columbia Committee on Animal Care. Adult naïve male Sprague-Dawley rats (300-350 g, Charles River) were group housed (3-4 animals/cage) in 12 hr:12 hr light-dark cycles and had free access to rat pellet chow and water prior to surgery. Reversible MCAO with suture-insertion method was performed as described previously^37. Briefly, a nylon suture with a blunted tip was entered through the right external carotid artery of anesthetized rats and advanced to the right internal carotid artery until the right MCA was occluded. After 60 min of occlusion, the rat was reanesthetized to facilitate the removal of the occlusion. Body temperature was maintained at between 36.5 and 37.5° C. throughout the surgical procedure with a heating pad. Peptides (10 mg/kg) or vehicle control (saline; 1 ml/kg) was injected via the jugular vein. Rats were then sewn up and allowed to recover until tissue collection.
Immunohistochemistry. Rats were anesthetized and perfused with double-filtered saline and 4% paraformaldehyde (PFA) in PBS. Brains were collected, immersed in 4% PFA before subjected to cryoprotection by 30% sucrose/PBS. After the brains had sunk, they were flash frozen with dry ice before overnight freezing in −80° C. They were then sliced at […] with a cryostat, and stored in 0.1 μM PB (sodium phosphate dibasic and sodium phosphate monobasic). Prior to staining, slices were washed 3×10 min with 0.1 μM PB, permeablized and blocked in 0.1 μM PB with 1% BSA and 0.2% Triton X-100 for 30 min, and stained with anti-DAPK1 (1:100) at 4° C. for 3 days. They were then washed and stained with Alexa 488 (1:1000) at 4° C. overnight before washing and mounting.

T1 sequence (P31016 whole entry): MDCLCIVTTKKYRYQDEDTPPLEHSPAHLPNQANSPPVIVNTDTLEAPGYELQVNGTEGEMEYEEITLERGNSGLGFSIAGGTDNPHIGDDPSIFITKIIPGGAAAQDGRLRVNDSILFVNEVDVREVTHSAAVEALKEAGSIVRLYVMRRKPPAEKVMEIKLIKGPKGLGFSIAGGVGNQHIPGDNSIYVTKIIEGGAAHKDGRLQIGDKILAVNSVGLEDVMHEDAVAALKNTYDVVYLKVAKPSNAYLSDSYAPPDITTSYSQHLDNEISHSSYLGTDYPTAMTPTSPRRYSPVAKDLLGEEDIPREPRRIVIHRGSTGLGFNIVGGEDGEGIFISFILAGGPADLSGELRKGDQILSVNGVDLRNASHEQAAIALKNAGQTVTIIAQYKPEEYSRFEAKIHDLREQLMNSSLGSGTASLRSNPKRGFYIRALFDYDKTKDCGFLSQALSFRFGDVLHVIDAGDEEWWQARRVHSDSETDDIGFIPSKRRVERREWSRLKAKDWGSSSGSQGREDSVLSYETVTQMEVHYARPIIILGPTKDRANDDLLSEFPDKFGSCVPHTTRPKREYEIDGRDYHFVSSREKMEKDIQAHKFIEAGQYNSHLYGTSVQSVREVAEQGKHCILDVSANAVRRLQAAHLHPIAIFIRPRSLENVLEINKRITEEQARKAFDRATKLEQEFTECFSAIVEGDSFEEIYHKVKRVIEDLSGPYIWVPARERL
T3 sequence (F1LNN8 1-1430): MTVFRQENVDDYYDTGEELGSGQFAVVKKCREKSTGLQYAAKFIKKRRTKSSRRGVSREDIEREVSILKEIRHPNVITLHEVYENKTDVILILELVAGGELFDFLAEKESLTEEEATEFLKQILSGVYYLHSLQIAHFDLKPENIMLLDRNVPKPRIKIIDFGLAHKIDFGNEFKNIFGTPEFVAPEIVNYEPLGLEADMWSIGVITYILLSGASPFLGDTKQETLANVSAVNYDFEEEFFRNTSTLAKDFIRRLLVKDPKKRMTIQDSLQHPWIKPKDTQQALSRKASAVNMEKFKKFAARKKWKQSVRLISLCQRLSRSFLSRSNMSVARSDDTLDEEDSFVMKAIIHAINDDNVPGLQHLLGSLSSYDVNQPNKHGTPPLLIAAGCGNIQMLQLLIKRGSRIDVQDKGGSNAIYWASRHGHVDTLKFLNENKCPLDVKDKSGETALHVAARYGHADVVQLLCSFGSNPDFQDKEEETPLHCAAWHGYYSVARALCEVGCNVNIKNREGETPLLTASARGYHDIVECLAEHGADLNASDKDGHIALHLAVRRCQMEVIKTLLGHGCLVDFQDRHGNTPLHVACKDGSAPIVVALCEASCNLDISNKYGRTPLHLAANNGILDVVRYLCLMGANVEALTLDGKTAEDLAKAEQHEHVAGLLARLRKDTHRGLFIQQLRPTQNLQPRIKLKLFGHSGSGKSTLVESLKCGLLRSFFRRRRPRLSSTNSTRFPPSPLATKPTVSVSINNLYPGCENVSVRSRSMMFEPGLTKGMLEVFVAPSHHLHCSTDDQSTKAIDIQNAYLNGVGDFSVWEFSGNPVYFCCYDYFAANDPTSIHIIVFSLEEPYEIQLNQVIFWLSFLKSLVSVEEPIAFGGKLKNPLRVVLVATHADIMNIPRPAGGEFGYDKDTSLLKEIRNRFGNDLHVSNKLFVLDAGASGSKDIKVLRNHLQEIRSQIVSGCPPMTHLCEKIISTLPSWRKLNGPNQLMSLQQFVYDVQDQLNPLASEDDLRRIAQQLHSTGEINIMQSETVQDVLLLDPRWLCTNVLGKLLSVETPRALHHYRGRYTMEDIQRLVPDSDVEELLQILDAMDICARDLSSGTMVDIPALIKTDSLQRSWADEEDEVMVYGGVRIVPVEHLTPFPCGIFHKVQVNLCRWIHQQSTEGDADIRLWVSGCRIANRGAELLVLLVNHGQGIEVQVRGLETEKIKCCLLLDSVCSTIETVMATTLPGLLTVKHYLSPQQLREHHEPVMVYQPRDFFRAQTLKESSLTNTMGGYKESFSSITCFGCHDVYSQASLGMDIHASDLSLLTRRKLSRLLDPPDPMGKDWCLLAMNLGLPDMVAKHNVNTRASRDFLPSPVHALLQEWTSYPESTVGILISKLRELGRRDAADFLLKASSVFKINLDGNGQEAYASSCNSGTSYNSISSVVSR

YGRKKRRQRRRGVLYVGSKTRKFERQKILDQRFFE (Knockdown peptide targeting alpha-synuclein, with TAT protein transduction domain) [TAT-βsyn-CTM, synthetic cell-penetrating α-synuclein targeting peptide]
effect on endogenous PSD95 level (PSD95): without affecting the non-intended target PSD95; also recorded: without affecting the level of unrelated control proteins PSD-95 | effect on endogenous α-synuclein level (α-synuclein [1]): significantly degraded native α-synuclein; also recorded: specifically decreased the targeted endogenous α-synuclein | effect of 3-methyladenine on α-synuclein reduction (α-synuclein [1]; 25 μM, +3-MA 10 mM): not by inhibition of macroautophagy with 3-methyladenine; also recorded: significantly decreased native α-synuclein in the presence of 3-MA | effect of NH4Cl on α-synuclein reduction (α-synuclein [1]; 25 μM, +NH4Cl 20 mM): rescued; also recorded: prevented

YGRKKRRQRRRKLSSIESDVKFERQKILDQRFFE (targeted knockdown peptide targeting PSD95, with TAT PTD) [TAT-NR2B9c-CTM, PSD-95 targeting peptide]
effect on endogenous PSD95 level (PSD95): significantly reduced PSD95; also recorded: effectively degraded endogenous PSD95 | effect of NH4Cl on PSD95 reduction (PSD95; 25 μM, +NH4Cl): rescued PSD95 degradation | effect on endogenous α-synuclein level (α-synuclein [1]): without perturbing untargeted protein α-synuclein

KETWWETWWTEWSQPKKKRKV [Pep-1, short amphipathic intracellular delivering carrier peptide, reference compound]
reduction of activated DAPK1 on application alone (DAPK1 [2]; NMDA): not produced

KKNRNKLRRQHSYKFERQKILDQRFFE (Knockdown peptide targeting DAPK1, without TAT protein transduction domain) [NR2B-CTS, synthetic DAPK1 degradation targeting peptide without TAT, delivered with Pep-1]
levels of endogenous DAPK1 reduced by (DAPK1 [2]; 10 μM, NMDA): 33.60±14.48% | levels of endogenous DAPK1 reduced by (DAPK1 [2]; 25 μM, NMDA): 43.65±2.05% | levels of endogenous DAPK1 reduced by (DAPK1 [2]; 50 μM, NMDA): 63.88±6.18% | reduction of activated DAPK1 on application alone (DAPK1 [2]; NMDA): not produced | effect on DAPK1 levels in non-NMDA treated neurons (DAPK1 [2]; delivered by Pep-1, no NMDA): did not affect DAPK1 levels | DAPK1 decrease (DAPK1 [2]; with Pep-1, 1 hour following NMDA and peptide washout): 58.27±5.48% | DAPK1 decrease (maximum level) (DAPK1 [2]; with Pep-1, 2 hours after washout): 78.79±1.15% | effect of NH4Cl on DAPK1 reduction (DAPK1 [2]; with Pep-1, NMDA, +NH4Cl 20 mM): fully rescued

FLAG-βsyn36-CTS: expressed FLAG-tagged peptide of β-synuclein 36-45 and CTS (untagged: SEQ ID NO:1 GVLYVGSKTRKFERQKILDQRFFE) ({FLAG}-GVLYVGSKTRKFERQKILDQRFFE)
effect of lysosome inhibitor on peptide-induced α-synuclein reduction (α-synuclein [3]; +NH4Cl 20 mM): completely rescued; also recorded: prevented | effect on α-synuclein levels (α-synuclein [3]): significantly decreased α-synuclein levels in a dose-dependent manner | effect on α-synuclein levels (α-synuclein [3]; listed as βsyn36-CTS): constitutively reduced α-synuclein in a dose-dependent manner | α-synuclein reduced by, of control α-synuclein levels (α-synuclein [3]; co-expression ratio 2:1, 48 hours): 42.89%±11.34% | α-synuclein reduced by, of control α-synuclein levels (α-synuclein [3]; co-expression ratio 4:1, 48 hours): 46.49%±5.72% | α-synuclein reduced by, of control α-synuclein levels (α-synuclein [3]; co-expression ratio 8:1, 48 hours): 52.18%±6.61% | α-synuclein reduced by, of control α-synuclein levels (α-synuclein [3]; co-expression ratio peptide:α-synuclein 1:1, 48 hours): 32.40%±7.14%

YGRKKRRQRRRKKNRNKLRRQHSYKFERQKILDQRFFE (Knockdown peptide targeting DAPK1, with TAT protein transduction domain) [TAT-NR2B-CTS]
effect of siRNA-mediated Lamp2a knockdown on DAPK1 knockdown (DAPK1 [2]; 25 μM peptide, NMDA, Lamp2a siRNA 60 pmol 3 days): inhibition of TAT-NR2BCTM induced knockdown of DAPK1 | effect on DAPK1 in cytosolic fraction (DAPK1 [2]; 25 μM): reduced the levels of DAPK1 | effect on DAPK1 in mitochondrial fraction (DAPK1 [2]; 25 μM): reduced the levels of DAPK1 | effect on DAPK1 in nuclear fraction (DAPK1 [2]; 25 μM): reduced the levels of DAPK1 | effect on DAPK1 in cytosolic fraction (DAPK1 [2]; 25 μM, listed as TAT-NR2BCTM): significantly decreased DAPK1 | effect on DAPK1 in mitochondrial fraction (DAPK1 [2]; 25 μM, listed as TAT-NR2BCTM): significantly decreased DAPK1 | effect on DAPK1 in nuclear fraction (DAPK1 [2]; 25 μM, listed as TAT-NR2BCTM): significantly decreased DAPK1 | effect of macroautophagy inhibitor on DAPK1 knockdown (DAPK1 [2]; NMDA, +3-MA): did not alter | effect of lysosomal inhibitor on DAPK1 reduction (DAPK1 [2]; synthetic peptide 25 μM, NMDA, +NH4Cl 20 mM): rescued; also recorded: prevented | effect on DAPK1 level after NMDA treatment (DAPK1 [2]; synthetic peptide 25 μM, prior to and during NMDA): significant reduction of DAPK1; also recorded: decreased native DAPK1 | level of DAPK1 in ischemic side, of that on the contralateral side (DAPK1 [4]; 1 hour following reperfusion, 60 min MCAO): 43.3% | region specificity of DAPK1 knockdown (immunohistochemistry) (DAPK1 [4]; brain sections, listed as TAT-NR2BCTM): specific to stroke-damaged areas; also recorded: selectively reduced the level of DAPK1 | effect on DAPK1 levels in brain tissues (immunoblot) (DAPK1 [4]; ischemic vs contralateral side, listed as TAT-NR2BCTM): significant reduction in DAPK1 levels only in the ischemic side of the brain; also recorded: specific knockdown of DAPK1 only in tissues collected from the infract side

FLAG-βsyn36: expressed FLAG-tagged β-synuclein 36-45 peptide without CTS ({FLAG}-GVLYVGSKTR; UniProt Q16143 36-45, looked up, fragment) [reference compound]
effect on α-synuclein levels (α-synuclein [3]): did not significantly affect
